Results on 17 molecules are retold here after patent US20230365685A1 (SUZHOU NEOLOGICS BIOSCIENCE, published 2023).

The chains are these.
B1: 18C6 (antibody, V domains shown)
VH: QVQLQQPGAEIVMPGASVKMSCKASGYKFTDFLMHWVKQRPGQGLEWIGAIDTSDSYASYNQKFKGKATLTLDESSSTAYMQLSSLTSEDSAVYYCSREAMDYWGQGTSVTVSS
VL: DVVMTQTPLSLPVSLGDQASISCRSSQSLVHSNGNTYLHWFLQKPGQSPKLLIYKVSNRFSGVPDRFSGSGSGTDFTLKISRVEAEDLGVYFCCQSTHVPPLTFGAGTKLELK
B2: 3E6 VH4/3E6 VL0 (antibody, V domains shown)
VH: QVQLQESGPGLVKPSQTLSLTCTVSGYSITSGFAWNWIRQPPGNGLEWIGYISHSGSTSYNPSLKSRITISVDTSKNQFSLKLSSVTAADTAVYYCARGYRSPWFAYWGQGTTVTVSS
VL: DIQMTQSPSSLSASVGDRVTITCKASQNVGANVAWYQQKPGKAPKSLIYSASYRYSGVPSRFSGSGSGTDFTLTISSLQPEDFATYYCQQYNSYPTFGGGTKVEIK
notes: Humanized 3E6; VH and VL cloned into vectors with constant regions (CH1-FC/CL) and expressed in 293F cells; also called humanized 3E6 VH4/VL0
B3: 3E6 VH3/3E6 VL0 (antibody, V domains shown)
VH: B2 VH with I68V
VL: B2 VL
notes: Humanized 3E6; VH and VL cloned into vectors with constant regions (CH1-FC/CL) and expressed in 293F cells; also called humanized 3E6 VH3/VL0
B4: 3E6 VH5/3E6 VL0 (antibody, V domains shown)
VH: B2 VH with V72R
VL: B2 VL
notes: Humanized 3E6; VH and VL cloned into vectors with constant regions (CH1-FC/CL) and expressed in 293F cells; also called humanized 3E6 VH5/VL0
B5: 3E6 VH1/3E6 VL0 (antibody, V domains shown)
VH: B2 VH with P41F, I49M, I68V
VL: B2 VL
notes: Humanized 3E6; VH and VL cloned into vectors with constant regions (CH1-FC/CL) and expressed in 293F cells; also called humanized 3E6 VH1/VL0
B6: 3E6 VH2/3E6 VL0 (antibody, V domains shown)
VH: B2 VH with N44K, I49M, I68V
VL: B2 VL
notes: Humanized 3E6; VH and VL cloned into vectors with constant regions (CH1-FC/CL) and expressed in 293F cells; also called humanized 3E6 VH2/VL0
B7: 3E6 VH6/3E6 VL0 (antibody, V domains shown)
VH: B2 VH with N44K, I49M
VL: B2 VL
notes: Humanized 3E6; VH and VL cloned into vectors with constant regions (CH1-FC/CL) and expressed in 293F cells; also called humanized 3E6 VH6/VL0
B8: 84G10 (antibody, V domains shown)
VH: QVQLQQSGGELVRPGSSVKISCKASGYAFSSYWMNWVKQRPGQGLEWIGQIYPGEGDTNYNGKFKGKATLTADKSSSTAYMQLSSLTSEDSAVYFCARGHFYGSSYDWFAYWGQGTLVTVSA
VL: DIQMTQSPASLSASVGETVTITCRASENINSYLAWYQQKQGKSPQLLVYHAKTLASGVPSRFSGSGSGTQFSLKINSLQPEDFGSYYCQHHYGTPLTFGAGARLELK
B9: 38F8 (antibody, V domains shown)
VH: EVQLQQLGAELVKPGASVKISCKASGYIFTDYSMDWVKQSHGESLEWIGDINPNYDSLSYNQKFKGKATLTVDKSSSTAYMELRSLTSEDTAVYYCARRGYGKDYFDFWGQGTSLTVSS
VL: TWGMTQTTSSLSASLGDRVTISCRASQDISNYLNWYQQKPDGTVKLLIYHTSRLYSGVPSRFTGSGSGTDYSLTISNLEQEDIATYFCQQGNTLPLTFGAGTKLELK
B10: 38A8 (antibody, V domains shown)
VH: QVQLQQPGAELVKPGASVKMSCKASGYTFTTYNMHWVKQTPGQGLEWIGGIYPGNGDTSYNQKFKGKATLTADKSSSTAYMQLSSLTSEDSAVYYCARSYYTFDAMDCWGQGTSVTVSS
VL: DIVMSQSPSSLAVSAGEKVTMSCKSSQSLLNSRTRKNYLAWYQQKPGRSPKLLIYWASTRESGVPDRFTGGGSGTDFTLTISSVQAEDLAVYYCKQSYSLLTFGAGTKLELK
B11: CH 9# (antibody, V domains shown)
VH: QVKLQESGPGLVAPSQSLSITCTVSGFSLTGYGVHWVRQPPGKGLEWLGMIWGDGSTDYNSALKSRLSISKDNSKSQVFLKMNSLQTDDTARYYCARDRGNHWYFDVWGQGTTVTVSS
VL: DIELTQSPAILSASPGEKVTMTCRASSSVSYMHWYQQKPGSSPKPWIYATSNLASGVPARFSGSGSGTSYSLTISRVEAEDAATYYCQQWSSNPLTFGAGTKLEIK
B12: CH 5# (antibody, V domains shown)
VH: QVQLQQSGPDLVKPGASVKISCKASGYSFTGYYMHWVKQSHGKSLEWIGRVNPNNGGTDYDQKFKGKAILSVDKSSNTAYMELRSLTSEDSAVYYCAREGEYFDYYAMDYWGQGTTVTVSS
VL: DIELTQSPASLAVSLGQRATISCRASESVEYYGTSLMQWYQQKPGQPPKLLIYAASNVESGVPARFSGSVSGTDFSLNIHPVEEDDIAMYFCQQSRKVPITFGSGTKLEIK
B13: CH 8# (antibody, V domains shown)
VH: B12 VH with Q3K, N52Y, D59S, D61N, S71T, N77S, Y106F
VL: B12 VL with P63A, V70G, Q94P, I100Y, S104G
B14: 36A2 (antibody, V domains shown)
VH: DVQLVESGGGLVQPGGSRKLSCAASGFTFSSFEMHWVRQAPETGLEWVAYISGGSTTIYYADTMKGRFTISRDNPENTLFLQMTSLRSEDTAIYYCVRSYYGLLDYWGQGTTLTVSS
VL: NIMMTQSPSSLSVSTGEKVTMSCKSSQSVLHSSNQKNFLAWFQQKPGQSPKLLIYWASTRESGVPDRFTGSGSGTDFTLTINNVQPEDLAVYYCHQYLSSLTFGAGTKLELK
notes: also called 36A12
B15: 36B11 (antibody, V domains shown)
VH: QVTLKESGPGILQPSQTLSLTCSFSGFSLSTSGMGVGWIRQPSGKGLEWLAHIWWDDVKRYNPALKSRLTISKDTSSSQVFLKIASVDTADTATYYCVRTFITTTTMDYWGQGTSVTVSS
VL: QIVLTQSPTIMSASPGEKVTLTCSASSGISSSYLYWYQQKPGSSPKLWIYGTSNLASGVPARFSGSGSGTSYSLTISSLEAEDAASYFCHQWSNYPYTFGGGTKLEIK
B16: 50H9 (antibody, V domains shown)
VH: EVQLVESGGDLVKPGGSLKLSCAASGFTFSTNGMSWVRQIPDKRLEWVATISSGGSNTYYPDSVKGRFTISRDNAKNTLYLQMSSLKSEDTAMYYCARRSELGPFAYWGQGTLVTVSA
VL: DVQMIQSPSSLSASLGDIVTMTCQASQGSSVNLNWFQQKPGKSPKLLIHGSNILEDGVPSRFSGSRYGTDFTLTISSLENEDMATYFCLQHSYLPYTFGGGTKLEIK
B17: 40F11 (antibody, V domains shown)
VH: QIQLVQSGPELKKPGETVRISCKASGYTFRTAEMQWVQKMPGRGLKWIGWINTRSGVPKYAEDFKGRFALSLETSATTAYLQISNLKNEDTATYFCTRGTYAMDYWGQGTSVTVSS
VL: ENVLTQSPAIMSASPGEKVTMTCRASSIVSSSYLHWYQQKSGASPKLWIYSTSNLPSGVPARFSGSGSGTFYSLTVSSVESEDAATYYCQQYSGYPYTFGGGTKLEIK

Changes are numbered by the printed parent chain.

The first test has as its target T1, mouse TIM-3 (mouse, UniProt Q8VIM0 20-281).
T1 construct: whole, on cells
Briefly: flow cytometry on cells stably expressing mouse TIM-3, PE-labelled secondary antibody; concentration not shown.
Regarding B1, the binding result was “no binding”.

A further test has as its target T2, human TIM-3 (human, UniProt Q8TDQ0 22-202, limits assumed).
T2 construct: also called HAVCR2; target antigen
Briefly: BLI (Octet-96); antigen not named in the paragraph. Background: Biolayer interferometry detects binding as a change in optical thickness at a sensor tip.
Regarding B2, the Kd turned out to be 1.87 nM.
With B3, binding was put at a Kd of 1.98 nM.
The same measure, in the same setting: for B4 the value was 1.78 nM; for B5, 467 nM.
On to B6, for which the Kd is 2.21 nM.
B7: the affinity, expressed as Kd, was 1.46 nM.

For another test, the target named is T3, human TIM-3 recombinant protein (TIM-3-his) (human, UniProt Q8TDQ0 22-202).
T3 construct: also called TIM-3 protein; not shown: His tag
Briefly: biosensor (HFC sensor, Probe Life): antibody captured, TIM-3-his in solution, 1:1 fit.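 Also: antigen applied as a twofold dilution series, association and dissociation phases recorded, KD obtained as koff divided by kon.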
Turning to B8, the Kd was 2.84 nM, the koff worked out at 0.00197 s⁻¹ and the kon was found to be 692000 M⁻¹ s⁻¹.
For B9, in that order: 1.74 nM, 0.00255 s⁻¹ and 1.47e+06 M⁻¹ s⁻¹.
For B10, in that order: 1.36 nM, 0.00126 s⁻¹ and 928000 M⁻¹ s⁻¹.
For B11, in that order: 553 nM, 0.00287 s⁻¹ and 5190 M⁻¹ s⁻¹.
Regarding B12, the Kd stood at 188 nM, the koff came to 0.00153 s⁻¹ and the kon worked out at 8130 M⁻¹ s⁻¹.
B13: the Kd is 512 nM, the koff came out at 0.00253 s⁻¹ and the kon was found to be 4930 M⁻¹ s⁻¹.
As to B14, the Kd came to 1.01 nM, the koff is 0.000559 s⁻¹ and the on-rate (kon) worked out at 553000 M⁻¹ s⁻¹.
Turning to B1, the Kd amounted to 0.207 nM, the koff was 0.00012 s⁻¹ and the kon is 580000 M⁻¹ s⁻¹.
For B15, in that order: 0.432 nM, 0.000383 s⁻¹ and 885000 M⁻¹ s⁻¹.
B16: the Kd was 6 nM, the koff turned out to be 0.00903 s⁻¹ and the kon is 1.51e+06 M⁻¹ s⁻¹.
For B17, in that order: 2.21 nM, 0.0019 s⁻¹ and 857000 M⁻¹ s⁻¹.

A word on the Kd: it is the concentration at which binding is half-saturated. Usually koff stands for the first-order rate constant of dissociation. In general, kon refers to a measure of how fast the partners come together.
